Results: US20070081991A1, “Compositions and methods for modulation of immune responses” (Pepgen Corporation, priority 2001, published 2007)
Entries after “also recorded” stand apart in the source; their conditions may differ. Marks after values point to notes of the source that are not given here.

Assays:
HLA-E [1] = target: T1, HLA-E (Homo sapiens, UniProt P13747); assay: Peptide competition with B7sp in cytotoxic assay on K562-E*01033 cells; type: cell-based; details: 0.1 μM B7sp together with increasing concentrations of competing peptide; effector Nishi
T1 construct: HLA-E*0101 and HLA-E*01033 cDNA encoding plasmids (pcDNA3) were provided by Drs; M. Ullbrecht and E. Weiss; expressed in transfected cells; host or cells: K562
Procedure: (§1) K562-E*01033 cells were incubated with the different peptides at 26° C. for 15-20 hours, and then tested in 2 h 51Cr release assays. In order to ensure that the levels of HLA-E with a protective peptide, and not the HLA-E levels as such, provided the protective capacity we kept the non-protective peptides, but omitted the B7sp, during the assays. (a) Killing of K562-E*01033 cells by NKL (left) or Nishi (right) after incubation with […], 300 mM hsp60sp, or 30 mM B7sp. 50 mM of P18I10 control peptide and hsp60sp was also included during the assays. Data from an E:T ratio of 30:1 is shown. The figure represents the mean of at least three experiments. Error bars indicate standard error of the mean. (b) Killing of K562-E*01033 cells by NKL (left panel) or Nishi (right panel) incubated over night with 30 mM 7sp, 300 mM P18I10 (pCtrl), 300 mM B7 R5V, 300 mM hsp60sp, or 300 mM hsp60 V5R. 50 mM of all peptides, except B7sp, were included during the assay. Peptide concentrations were chosen according to FIG. 5c. The figure represents the mean of at least three experiments. Error bars indicate standard error of the mean. (c) HLA-E cell surface expression by K562-E*01033 after the assay. A cold target preparation was prepared in parallel as in (a) and (b), and then stained with DX17 mAb (anti-HLA class I), followed by RPE-conjugated goat-anti-mouse IgG. One representative example out of more than 5 is shown. Note that, as in (a) and (b), 50 mM of all peptides, except for B7sp, was present during the time of the assay, explaining the lower HLA-E expression with B7sp compared to Hsp60sp, Hsp60 V5R and B7 R5V. (d) Killing of K562-E*01033 cells by Nishi after incubation for 30 min at room temperature with 0.1 mM B7sp and increasing amounts of competing peptides (hsp60sp, hsp60.4, B7 R5V and P18I10). All the peptides were kept throughout the assay
Briefly, K562-E*01033 cells were incubated with 0.1 μM B7sp together with increasing concentrations of competing peptides and tested in cytotoxic assays.

HLA-E [2] = assay: HLA-E stabilization assay (cell surface expression by flow cytometry); type: cell-based, human; details: overnight incubation with peptide at 26° C.
Procedure: Synthetic peptides, purchased from Research Genetics, were dissolved in PBS. The peptides used were B7sp ([…]) (SEC ID NO: 3), hsp60sp ([…]) (SEC ID NO: 2), B7 R5V ([…]) (SEC ID NO: 14), hsp60 V5R ([…]) ([…]), and P18I10 ([…]) (SEC ID NO: 113) (all from Research Genetics, Huntsville, Ala.). Cells and their HLA-E transfected derivatives were incubated with synthetic peptides (3-300 μM) at 26° C. for 15-20 hours in serum-free AIM-V medium (GibcoBRL, Paisley Scotland) at a concentration of 1-3.10^6 cells/ml. Cells were then harvested, washed in PBS, stained with mAbs and analyzed by flow cytometry. Cells were subjected to stress by allowing them to grow at increasing cell density.
To test whether the hsp60-derived peptides were able to bind HLA-E, stabilized HLA-E cell surface expression was stabilized with the different synthetic peptides, by overnight incubation at 26° C. For this purpose MHC class I-deficient cell lines such as 721.221 (which lack HLA-A, -B, -C, and -G, but express HLA-E and -F intracellularly), as well as K562 cells transfected with HLA-E*01033 (K562-E*01033) or HLA-E*0101 were employed. The 721.221 cells and HLA-E transfected, but not untransfected, K562 cells express low levels of HLA-E at the cell surface during normal cell growth.

CD94/NKG2A+ NK cells = details: peptide presented by Qa-1^b; cited from earlier work
Qa-1^b = target: T2, Qa-1^b (Mus musculus, UniProt P06339); details: cited from earlier work
T2 sequence (P06339 21-357): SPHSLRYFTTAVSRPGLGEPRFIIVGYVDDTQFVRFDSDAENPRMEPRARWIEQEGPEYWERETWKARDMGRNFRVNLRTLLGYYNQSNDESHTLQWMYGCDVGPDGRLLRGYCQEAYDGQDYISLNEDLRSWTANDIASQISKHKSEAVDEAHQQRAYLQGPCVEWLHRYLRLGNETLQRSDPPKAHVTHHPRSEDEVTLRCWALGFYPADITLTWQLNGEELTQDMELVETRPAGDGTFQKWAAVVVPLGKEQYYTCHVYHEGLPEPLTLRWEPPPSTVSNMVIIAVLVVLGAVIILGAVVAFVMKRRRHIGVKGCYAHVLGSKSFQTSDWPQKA
T2 sequence (P01887 21-119 partner): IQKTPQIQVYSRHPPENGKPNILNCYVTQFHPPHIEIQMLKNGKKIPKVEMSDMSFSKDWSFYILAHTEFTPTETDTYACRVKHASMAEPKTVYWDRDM

[3] = mice; cited from earlier work
[4] = system: CD94/NKG2A+ NK cell lines Nishi and NKL; assay: NK cell-mediated cytotoxicity, 2 h 51Cr release, peptide-loaded K562-E*01033 targets; type: cell-based, human; details: targets incubated overnight at 26° C. with peptide; effectors NKL and Nishi
Procedure: as §1
NK cell-mediated cytotoxicity was measured using a 2 hours standard ^51Cr radioisotope release assay. Briefly, target cells were incubated for 15-20 hours at 26° C. with the various peptides at concentrations ranging from 1-300 μM, and then labeled with ^51Cr. Peptides were washed away prior to setting up the assays, except in some experiments where the non-protective hsp60sp, B7 R5V and hsp60 V5R was kept throughout the assay to assure higher levels of HLA-E expression, as compared to targets incubated with the protective B7sp. In mAb blocking experiments, cells were preincubated with mouse serum, or an irrelevant isotype matched antibody to block Fc-receptors. Blocking of either target or effector cells with mAbs was performed at 4° C., and the antibodies were also included during the assays. […]

HLA-E [5] = assay: HLA-E stabilization assay (cell surface expression by flow cytometry); type: cell-based, human; details: at 37° C.
[6] = target: T3, HLA-E*01033 on transfected K562 cells (K562-E*01033) (human); assay: HLA-E surface stabilisation on transfected K562 cells, synthetic peptide overnight at 26 C, flow cytometry
T3 construct: whole, on cells; MHC class I molecule that takes up added peptide in the 26 C stabilisation assay
Procedure: (§2) Synthetic peptides, purchased from Research Genetics, were dissolved in PBS. […] Cells and their HLA-E transfected derivatives were incubated with synthetic peptides (3-300 μM) at 26° C. for 15-20 hours in serum-free AIM-V medium (GibcoBRL, Paisley Scotland) at a concentration of 1-3.10⁶ cells/ml. Cells were then harvested, washed in PBS, stained with mAbs and analyzed by flow cytometry. Cells were subjected to stress by allowing them to grow at increasing cell density.

[7] = target: T4, HLA-E on cells, allele not told (human, UniProt P13747 22-358; P61769 21-119); assay: summary of the examples
T4 construct: whole, on cells

[8] = target: T3, HLA-E*01033 on transfected K562 cells …; assay: HLA-E surface expression on K562-E*01033 cells after the cytotoxic assay, DX17 staining, flow cytometry
[9] = target: T4, HLA-E on cells, allele not told; assay: HLA-E surface stabilisation on transfected K562 and 721.221 cells, flow cytometry
Procedure: as §2

[10] = target: T3, HLA-E*01033 on transfected K562 cells …; assay: HLA-E surface stabilisation on K562-E*01033 cells, DX17 staining, flow cytometry
Procedure: as §2

[11] = target: T4, HLA-E on cells, allele not told; assay: HLA-E surface stabilisation with synthetic peptide overnight at 26 C, flow cytometry
Procedure: as §2

[12] = K562 cells transfected with HLA-E*01033 or HLA-E*0101

## RGPGRAFVTI [P18I10, reference compound]
HLA-E [1]
  competition with B7sp (loss of HLA-E mediated protection from killing): remained protected from killing at all concentrations tested

## L MLQGVDLL (N-terminal Leu) [hsp60.2, human hsp60 residues 39-47]
HLA-E [2]; [12]
  HLA-E cell surface expression (stabilization): HLA-E stabilization was not observed

## GMKFDRGYI [hsp60.4, human hsp60 residues 216-224]
CD94/NKG2A+ NK cells
  protection from CD94/NKG2A+ NK cells: did not induce protection from CD94/NKG2A^+ NK cells; also recorded: fail to protect the cells from NK cell mediated lysis
HLA-E [2]; 721.221 cells
  HLA-E cell surface expression (stabilization): capable of stabilizing HLA-E molecules
HLA-E [2]; [12]
  HLA-E cell surface expression (stabilization): capable of stabilizing HLA-E molecules; also recorded: can bind to HLA-E
Qa-1^b
  binding to Qa-1^b: bind to mouse Qa-1^b molecules; also recorded: could bind to Qa-1^b; also recorded: binds to Qa-1^b
Qa-1^b; even when mixed in 100,000-fold excess with 1 mM Qdm
  competition with Qdm-peptide for binding to Qa-1^b: failed to compete with the protective Qdm-peptide for binding to Qa-1^b; also recorded: nor could it reportedly compete for binding to Qa-1^b
HLA-E [1]
  competition with B7sp (loss of HLA-E mediated protection from killing): not able to compete with B7sp; also recorded: could not compete with the B7sp for binding to HLA-E

## AMAPRTLLL [qdm, reference compound]
Qa-1^b
  binding to Qa-1^b: known to form relatively stable Qa-1b/peptide complex

## VMLAVDAVI [hsp60.3, human hsp60 residues 144-152]
HLA-E [2]; [12]
  HLA-E cell surface expression (stabilization): HLA-E stabilization was not observed

## CN(C(=O)c1c(O)c2ccccc2n(C)c1=O)c1ccccc1 [linomide]
[3]
  protection from developing EAE: can protect mice from developing disease

## QMRPVSRVL [hsp60sp]
HLA-E [2]; [12]
  HLA-E cell surface expression (stabilization): substantial increase in HLA-E expression; also recorded: stabilization of HLA-E
[4]
  protection of K562-E*01033 cells from killing by NK cells: did not result in any significant protection; also recorded: fails to protect K562-E*01033 cells from killing by NK cells
HLA-E [1]
  competition with B7sp (loss of HLA-E mediated protection from killing): could interfere with HLA-E mediated protection by competing with MHC class I signal peptides; also recorded: became more susceptible to killing with increasing concentrations of hsp60sp
HLA-E [5]
  dissociation of HLA-E/peptide complexes: dissociated faster than the HLA-E/B7sp

## QMRPRSRVL [hsp60 V5R, hsp60sp with valine to arginine at position 5]
[4]
  protection of K562-E*01033 cells from killing by NK cells: not sufficient to restore protection from killing

## VMAPVTVLL [B7 R5V, B7sp with arginine to valine at position 5]
HLA-E [2]; [12]
  HLA-E cell surface expression (stabilization): expressed high levels of HLA-E
[4]
  protection of K562-E*01033 cells from killing by NK cells: efficiently killed by CD94/NKG2A^+ NK cells
HLA-E [1]
  competition with B7sp (loss of HLA-E mediated protection from killing): even stronger competitor than hsp60sp

B1: hsp60sp (QMRPVSRVL), nonamer from the signal sequence of human hsp60 (peptide)
peptide: QMRPVSRVL
notes: Synthetic peptide (Research Genetics); also called hsp60 signal peptide; hsp60 leader peptide
[6]
  binding result: binds
[7]
  binding result: binds

B2: hsp60 V5R (QMRPRSRVL) (peptide)
peptide: QMRPRSRVL
[8]
  binding result: binds

B3: hsp60.4 peptide (GMKFDRGYI) (peptide)
peptide: GMKFDRGYI
[9]
  binding result: binds

B4: B7sp (VMAPRTVLL), peptide from the leader sequence of HLA-B*0701 (peptide)
peptide: VMAPRTVLL
notes: also called B7 signal peptide
[6]
  binding result: binds

B5: B7 R5V (VMAPVTVLL) (peptide)
peptide: VMAPVTVLL
[10]
  binding result: binds

B6: hsp60.2 peptide (LMLQGVDLL) (peptide)
peptide: LMLQGVDLL
[11]
  binding result: no binding

B7: hsp60.3 peptide (VMLAVDAVI) (peptide)
peptide: VMLAVDAVI
[11]
  binding result: no binding
